Changes are numbered by the printed parent chain. Names may count otherwise.
Assays:
[1] = target: T1, CD20 (human B lymphocyte-restricted differentiation antigen, Bp35) (human) (UniProt P11836); assay: flow cytometry, PE-labelled MAb dissociating from Raji cells, without competing veltuzumab-Fab'-NEM
T1 sequence (looked up): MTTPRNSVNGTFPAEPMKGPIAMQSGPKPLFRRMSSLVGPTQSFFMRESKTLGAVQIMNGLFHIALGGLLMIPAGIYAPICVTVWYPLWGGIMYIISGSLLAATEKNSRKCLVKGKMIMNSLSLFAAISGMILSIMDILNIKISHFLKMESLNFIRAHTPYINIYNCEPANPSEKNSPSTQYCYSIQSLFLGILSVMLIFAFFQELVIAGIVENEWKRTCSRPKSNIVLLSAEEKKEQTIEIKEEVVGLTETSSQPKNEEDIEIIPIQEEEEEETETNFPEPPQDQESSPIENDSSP

[2] = target: T2, CD20 (human B lymphocyte-restricted differentiation antigen, Bp35) (human, UniProt P11836 1-297); assay: as above
T2 construct: whole, on cells; Endogenous CD20 on lymphoma cell lines; also called cell-surface CD20
T2 sequence (looked up): T1 sequence (looked up)
Procedure: (§1) Cells (Daudi, Raji, or Ramos) in 0.5 mL of CM (phenol red-free RPMI 1640 media supplemented with 10% FBS) at 1×10⁶ cells/mL were incubated with 5 μg of each PE-labeled MAb at room temperature for 30 min, pelleted at 400×g, washed twice with CM, resuspended in 1.5 mL of CM, and split into two 0.75-mL aliquots. […] Subsequent measurements were taken at 30-min intervals. The percent maximal binding, which is the quotient of the MFI at T=X divided by that at T=0, was plotted against time, and the results analyzed by Prism software (GraphPad Software Inc., San Diego, Calif.) to yield the half-life or off-rates.

[3] = target: T2, CD20 (human B lymphocyte-restricted …); assay: saturation binding of 125I-labelled MAb to Raji cells, nonlinear regression / Scatchard; apparent KD, replicate assays
Procedure: (§2) Raji cells (5×10⁵) were incubated with radioiodinated MAbs in an assay volume of 225 μl, using tissue culture media as diluent, for 1 h at 37° C. or room temperature. Cells then were washed twice with PBS containing 1% horse serum, and cell pellets were counted in a gamma counter. The MAbs were titrated at a 2:3 serial dilution starting with approximately 2×10⁶ cpm/2 μg MAb/tube, run in triplicate. Non-specific binding was measured by including replicate unlabeled MAb.

[4] = target: T2, CD20 (human B lymphocyte-restricted …); assay: flow cytometry, dissociation of PE-labelled MAb from live Ramos cells at 37 C with excess veltuzumab Fab'-NEM; % T=0 MFI against time, one-phase exponential decay fit [table, column Ramos]
Procedure: (§3) FIG. 5. […] The off-rate was determined by non-linear regression (one phase exponential decay) and P-values were generated by F-test using GraphPad Prism software.
as §1

[5] = target: T2, CD20 (human B lymphocyte-restricted …); assay: flow cytometry, dissociation of PE-labelled MAb from live Raji cells (exp 2) at 37 C with excess veltuzumab Fab'-NEM; % T=0 MFI against time, one-phase exponential decay fit [table, column Raji (exp 2)]
Procedure: as §1

[6] = target: T2, CD20 (human B lymphocyte-restricted …); assay: flow cytometry, dissociation of PE-labelled MAb from live Raji cells (exp 1) at 37 C with excess veltuzumab Fab'-NEM; % T=0 MFI against time, one-phase exponential decay fit [table, column Raji (exp 1)]
Procedure: as §3, §1

[7] = target: T2, CD20 (human B lymphocyte-restricted …); assay: direct cell-surface saturation binding of 125I-labelled MAb to Raji cells; non-linear regression, one-site binding model (Prism); one representative of three experiments
Procedure: FIG. 4. […] Bₘₐₓ and Kd were determined by non-linear regression analysis using a one-site binding model with Prism software.
as §2

[8] = target: T2, CD20 (human B lymphocyte-restricted …); assay: flow cytometry, dissociation of PE-labelled MAb from live Daudi cells at 37 C with excess veltuzumab Fab'-NEM; % T=0 MFI against time, one-phase exponential decay fit [table, column Daudi]
Procedure: as §3, §1

[9] = target: T2, CD20 (human B lymphocyte-restricted …); assay: flow cytometry off-rate on lymphoma cells, with or without a competitive binder (summary of Example 5)
Procedure: as §1

[10] = target: T1, CD20 (human B lymphocyte-restricted differentiation antigen, Bp35) (human); assay: cell-based or functional assay
anti-idiotype antibodies = assay: binding of radioiodinated MAb to anti-idiotype antibodies
[11] = target: T2, CD20 (human B lymphocyte-restricted …); assay: flow cytometry, PE-labelled MAb dissociating from Daudi, Ramos and Raji cells at 37 C with excess veltuzumab-Fab'-NEM
Procedure: as §1

[12] = target: T2, CD20 (human B lymphocyte-restricted …); assay: flow cytometry, PE-labelled MAb dissociating from Raji cells at 37 C with excess veltuzumab-Fab'-NEM
Procedure: as §1

## 1F5, murine anti-CD20 monoclonal antibody
[1]
  dissociation half-life: 195 min

B1: rituximab (chimeric anti-CD20, c2B8) (antibody, V domains shown)
VH: QVQLQQPGAELVKPGASVKMSCKASGYTFTSYNMHWVKQTPGRGLEWIGAIYPGNGDTSYNQKFKGKATLTADKSSSTAYMQLSSLTSEDSAVYYCARSTYYGGDWYFNVWGQGTTVTVSS
VL: QIVLSQSPAILSASPGEKVTMTCRASSSVSYIHWFQQKPGSSPKPWIYATSNLASGVPVRFSGSGSGTSYSLTISRVEAEDAATYYCQQWTSNPPTFGGGTK
notes: Commercial chimeric antibody; also called IDEC-c2B8; Rmab
[2]
  dissociation half-life: 94 min
[3]
  Kd: 6.7 to 8.63 nM
[4]
  Dissociation Rates (T 1/2 Min): 19 min
[5]
  Dissociation Rates (T 1/2 Min): 21.4 min
[6]
  Dissociation Rates (T 1/2 Min): 24.3 min
[7]
  Kd: 8.62 nM
[8]
  Dissociation Rates (T 1/2 Min): 20.1 min

B2: cA20, chimeric anti-CD20 antibody (antibody, V domains shown)
VH: B1 VH with N109D
VL: DIQLTQSPAILSASPGEKVTMTCRASSSVSYIHWFQQKPGSSPKPWIYATSNLASGVPVRFSGSGSGTSYSLTISRVEAEDAATYYCQQWTSNPPTFGGGTKLEIK
[4]
  Dissociation Rates (T 1/2 Min): 54.8 min
[6]
  Dissociation Rates (T 1/2 Min): 62 min
[8]
  Dissociation Rates (T 1/2 Min): 58.8 min
[9]
  off-rate, fold slower than rituximab or D101N: ~2.5 fold

B3: V102Y, variant of hA20 with Val to Tyr at Kabat position 102 in the CDR3 of VH (antibody, name in Kabat numbering, V domains shown)
VH: QVQLQQSGAEVKKPGSSVKVSCKASGYTFTSYNMHWVKQAPGQGLEWIGAIYPGNGDTSYNQKFKGKATLTADESTNTAYMELSSLRSEDTAFYYCARSTYYGGDWYFDYWGQGTTVTVSS
VL: DIQLTQSPSSLSASVGDRVTMTCRASSSVSYIHWFQQKPGKAPKPWIYATSNLASGVPVRFSGSGSGTDYTFTISSLQPEDIATYYCQQWTSNPPTFGGGTKLEIK
[10]
  ADCC (% lysis), Daudi targets, Donor 001: 47.5 % lysis
  ADCC (% lysis), Daudi targets, Donor 006: 24.2 % lysis
  ADCC (% lysis), Daudi targets, Donor 009: 33.4 % lysis

B4: veltuzumab (hA20), humanized anti-CD20 antibody (antibody, V domains shown)
VH: B3 VH with Y110V
VL: B3 VL
notes: It was 125I-labelled in the Scatchard assay and PE-labelled (Zenon kit) in the off-rate assay; also called v-mab; Vmab
[2]
  dissociation half-life: 281 min
anti-idiotype antibodies
  immunoreactivity: > 90%
[11]
  dissociation half-life, fold longer than rituximab: 2.7 fold
[3]
  Kd: 6.23 to 12 nM
[4]
  Dissociation Rates (T 1/2 Min): 57 min
[5]
  Dissociation Rates (T 1/2 Min): 61.8 min
[6]
  Dissociation Rates (T 1/2 Min): 59.1 min
[7]
  Kd: 10.8 nM
[8]
  Dissociation Rates (T 1/2 Min): 54.4 min
[9]
  off-rate, fold slower than rituximab or D101N: ~2.5 fold

B5: YDE, Fc variant of V102Y with S239D and I332E in the CH2 domain (antibody, name in Kabat numbering, V domains shown)
VH: B3 VH
VL: B3 VL
[10]
  ADCC (% lysis), Daudi targets, Donor 001: 58.3 % lysis
  ADCC (% lysis), Daudi targets, Donor 006: 31.5 % lysis
  ADCC (% lysis), Daudi targets, Donor 009: 54.5 % lysis

B6: D101N, mutant of veltuzumab with Asp to Asn at Kabat position 101 in CDRH3 (antibody, name in Kabat numbering, V domains shown)
VH: B3 VH with D109N, Y110V
VL: B3 VL
notes: Same CDRs as rituximab and identical FRs to veltuzumab; also called D101N-hA20
[2]
  dissociation half-life: 42 min
[5]
  Dissociation Rates (T 1/2 Min): 9.4 min
[12]
  off-rate, fold faster than rituximab: 2 fold
  off-rate, fold faster than veltuzumab: 6 fold
